Article PMC10516636, “Structural basis for the selective methylation of 5-carboxymethoxyuridine in tRNA modification” (Nucleic Acids Research, 2023)

Key:
[1] = biological target: the molecule itself; assay: SEC; Superdex 75 column, 100 ug wild-type CmoM, 25 mM HEPES pH 7.5, 150 mM NaCl, 0.5 ml/min; ovalbumin (44 kDa) and MnmC (76 kDa) run for comparison
CmoM = biological target: T1, CmoM (Escherichia coli (ASKA library clone), UniProt P36566 1-261); assay: X-ray crystallography (2.22 A); sinefungin (3 mM); Mg2+ (0.04 M magnesium acetate in reservoir); Crystallization: CmoM:tRNA 1:4 molar ratio, 3 mM sinefungin; reservoir 0.04 M Mg acetate, 0.05 M Na cacodylate pH 6.0, 30% MPD, 25 C; protein in 25 mM HEPES pH; conditions: protein: recombinant; tags: His tag (ASKA pCA24N vector; HisTrap purified); tRNA fold with 16-nt variable arm
T1 sequence: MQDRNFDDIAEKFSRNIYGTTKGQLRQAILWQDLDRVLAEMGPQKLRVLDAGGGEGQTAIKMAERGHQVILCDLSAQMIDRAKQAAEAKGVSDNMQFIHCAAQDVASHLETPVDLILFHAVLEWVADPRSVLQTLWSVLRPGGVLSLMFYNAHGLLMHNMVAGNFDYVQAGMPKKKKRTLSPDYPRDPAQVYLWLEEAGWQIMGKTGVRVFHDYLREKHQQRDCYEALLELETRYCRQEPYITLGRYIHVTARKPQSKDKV

B1: Escherichia coli CmoM (wild type, recombinant) (enzyme, E. coli)
chain: QDRNFDDIAEKFSRNIYGTTKGQLRQAILWQDLDRVLAEMGPQKLRVLDAGGGEGQTAIKMAERGHQVILCDLSAQMIDRAKQAAEAKGVSDNMQFIHCAAQDVASHLETPVDLILFHAVLEWVADPRSVLQTLWSVLRPGGVLSLMFYNAHGLLMHNMVAGNFDYVQAGMPKKKKRTLSPDYPRDPAQVYLWLEEAGWQIMGKTGVRVFHDYLREKHQQRDCYEALLELETRYCRQEPYITLGRYIHVTARKPQSKDKV
notes: CmoM, SAM-dependent tRNA cmo5U34 methyltransferase of E. coli; cmoM gene on pCA24N from the ASKA library; calculated monomer molecular weight 31.7 kDa; 257 protein residues modelled in the crystal structure; also called E. coli CmoM; source: E. coli BL21 (DE3), purified (HisTrap HP Ni2+ column); not shown: His tag (inferred from the HisTrap Ni2+ purification)
For B1, the “stoichiometry N” value [1] was 2.

B2: tRNASer1(cmo5UGA) (structured_RNA)
RNA: GGAAGUGUGGCCGAGCGGUUGAAGGCACCGGUCUUGAAAACCGGCGACCCGAAAGGGUUCCAGAGUUCGAAUCUCUGCGCUUCCGCCA
modifications: cmo5U34; i6A37 (partly ms2i6A37); other native tRNA modifications
B2: binds (CmoM).
